The values that follow come from patent WO2011095545A1 (dated 2011).

One test deals with T1, human serum albumin (human, UniProt P02768 25-609).
T1 construct: Bought protein (Sigma, 99% pure); also called HSA
The test can be described thus: SPR (BIAcore 3000), HSA on CM5 chip, 2D3-peptide fusion injected. In general terms: SPR reads the build-up and loss of mass on a sensor chip optically.

In a further test the target is T2, cynomolgus serum albumin (cynomolgus monkey, UniProt A2V9Z4 25-608).
T2 construct: also called cyno serum albumin
T2 sequence (A2V9Z4 25-608 limits assumed): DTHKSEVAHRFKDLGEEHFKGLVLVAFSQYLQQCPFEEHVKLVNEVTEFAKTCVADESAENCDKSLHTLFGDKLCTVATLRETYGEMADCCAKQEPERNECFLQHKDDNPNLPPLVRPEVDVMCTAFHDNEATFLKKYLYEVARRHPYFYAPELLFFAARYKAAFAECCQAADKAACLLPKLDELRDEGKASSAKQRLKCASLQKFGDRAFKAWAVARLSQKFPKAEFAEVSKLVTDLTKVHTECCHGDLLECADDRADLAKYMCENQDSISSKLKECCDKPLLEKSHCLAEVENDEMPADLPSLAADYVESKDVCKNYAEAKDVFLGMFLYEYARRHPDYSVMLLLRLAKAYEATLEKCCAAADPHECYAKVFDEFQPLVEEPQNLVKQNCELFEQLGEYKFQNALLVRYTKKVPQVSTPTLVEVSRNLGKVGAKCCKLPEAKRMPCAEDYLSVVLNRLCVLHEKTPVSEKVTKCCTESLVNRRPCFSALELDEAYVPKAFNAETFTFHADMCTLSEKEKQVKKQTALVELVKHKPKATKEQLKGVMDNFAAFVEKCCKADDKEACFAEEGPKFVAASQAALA
The test can be described thus: SPR (BIAcore 3000), 200 nM and 1 uM fusion injected on CM5 chip with ~900 RU cynomolgus serum albumin.

T1 sequence (P02768 25-609 limits assumed): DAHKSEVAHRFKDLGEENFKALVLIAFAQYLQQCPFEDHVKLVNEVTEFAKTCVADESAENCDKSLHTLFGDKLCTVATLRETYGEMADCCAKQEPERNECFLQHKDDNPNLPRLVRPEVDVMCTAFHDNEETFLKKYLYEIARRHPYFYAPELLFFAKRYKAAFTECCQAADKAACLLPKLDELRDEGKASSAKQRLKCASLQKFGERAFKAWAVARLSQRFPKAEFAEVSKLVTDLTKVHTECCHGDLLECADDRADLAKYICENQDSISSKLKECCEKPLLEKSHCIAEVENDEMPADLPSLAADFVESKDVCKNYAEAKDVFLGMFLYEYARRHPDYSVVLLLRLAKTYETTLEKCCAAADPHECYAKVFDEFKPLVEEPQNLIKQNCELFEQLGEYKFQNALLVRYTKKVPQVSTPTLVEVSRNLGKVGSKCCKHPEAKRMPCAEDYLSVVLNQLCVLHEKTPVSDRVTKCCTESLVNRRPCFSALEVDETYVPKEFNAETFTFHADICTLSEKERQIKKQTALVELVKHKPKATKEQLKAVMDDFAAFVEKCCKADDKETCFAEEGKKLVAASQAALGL

B1: EXPGMP 80B10 (as a fusion with the Nanobody 2D3) (other)
chain: EVQLVESGGSLVQPGGSLRLSCAASGFTFDDYAMSWVRQVPGKGLEWVSSINWSGTHTDYADSVKGRFTISRNNANNTLYLQMNSLKSEDTAVYYCAKNWRDAGTTWFEKSGSAGQGTQVTVSSGGGGSGGGSYWWERRDWDFDVFGGGTPAAAEQKLISEEDLNGAAHHHHHH
notes: Nanobody-peptide fusion, expressed in E. coli, purified by IMAC/SEC; also called 2D3-9GS-EXP80B10
With B1, in the test with human serum albumin, the Kd amounted to 16 nM.

B2: 5F7-9GS-EXP89D03-9GS-EXP89D03 (other)
chain: EVQLVESGGGLVQAGGSLRLSCAASGITFSINTMGWYRQAPGKQRELVALISSIGDTYYADSVKGRFTISRDNAKNTVYLQMNSLKPEDTAVYYCKRFRTAAQGTDYWGQGTQVTVSSGGGGSGGGSWWEQDRDWDFDVFGGGTPGGGGSGGGSWWEQDRDWDFDVFGGGTP
notes: Fusion of Nanobody 5F7 with a tandem repeat of peptide 89D03; also called EXP486
In the case of B2, the binding result in the test with cynomolgus serum albumin was “binds”.

As usually defined, the Kd is the equilibrium constant for the complex coming apart. A low value points to tighter binding.
